Data reported in patent US20250171562A1 (ALK ABELL, published 2025).

Target: T1, recombinant human IgE (human, UniProt P01854-1 1-428)
T1 construct: made in-house (ALK); preloaded on immobilised FcεRIα in the displacement ELISA
Test: IgE-FcεRIα displacement ELISA
Experimental: The displacement effect was tested using IgE-FcεRIα displacement ELISA assay. Maxisorp® microtiter plates (Thermo Scientific Nunc, Roskilde, Denmark) were coated with 100 μl streptavidin, 5 μg/ml (Thermo Scientific, Waltham, MA) for 18 h at 4° C. followed by wash with 300 μl washing buffer (PBS containing 0.05% Tween 20) using an AquaMax® 2000 plate washer (Molecular Devices, San Jose, CA). Remaining binding sites were blocked with 250 μl blocking buffer (PBS containing 2% BSA) for 2 h and washed with 300 μl washing buffer. Subsequently, the bound streptavidin was loaded with 100 μl (0.1 μg/ml) recombinant human FcεRIα (site specific biotinylated via avi-tag, made in-house, ALK, Hørsholm, Denmark) for 1 h and plates washed twice with 300 μl washing buffer. The bound receptor was then loaded with 100 μl recombinant human IgE (made in-house, ALK, Hørsholm, Denmark), 13 ng/ml (pre-titrated to reach an OD₄₅₀ signal in the range of 1.5-2.5 in the absence of displacement components) for 1h followed by three washes of 300 μl washing buffer.
displacement step: 100 μl sdAbs diluted in concentration series (pM-μM range) or blocking buffer only as a non-displacement negative control, were added to the ELISA wells and incubated for 1 h. Any IgE, displaced from the receptor by a sdAb was washed away by three washes of 300 μl washing buffer.
The ability of the various sdAbs to displace IgE from the receptor (FcεRIα) was evaluated by use of the ELISA based IgE-FcεRIα displacement assay. The percent displacement effect was calculated as the relative reduction in signal compared to the control with no sdAb added. The EC₅₀ values and the maximal effects were determined (table 15).

T1 sequence (P01854 other isoform, or with tags, fused parts or gaps): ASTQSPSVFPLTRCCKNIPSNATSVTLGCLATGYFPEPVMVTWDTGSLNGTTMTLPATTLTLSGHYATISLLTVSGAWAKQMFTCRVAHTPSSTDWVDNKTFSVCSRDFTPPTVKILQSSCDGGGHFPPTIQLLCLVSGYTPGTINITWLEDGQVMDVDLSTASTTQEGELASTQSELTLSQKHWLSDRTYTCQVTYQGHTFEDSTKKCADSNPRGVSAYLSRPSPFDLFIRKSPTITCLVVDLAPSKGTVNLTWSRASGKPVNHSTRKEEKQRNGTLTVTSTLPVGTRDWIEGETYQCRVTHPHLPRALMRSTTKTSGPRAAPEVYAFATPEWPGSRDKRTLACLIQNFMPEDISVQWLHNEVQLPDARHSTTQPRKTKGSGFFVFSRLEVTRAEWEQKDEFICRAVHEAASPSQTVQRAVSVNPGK

Binder	EC50	Max effect
B1A1(G4S)1 (bispecific antibody) QVQLQESGGGLVQTGGSLRLSCAVHGRTFSNTGMGWFRQAPGNERQFVAIISPSGTSTYYADSVKGRFTISRDPAKNTVYLQMNSLKMDDTAVYYCAASYGSNWSTLRHQRRNEYDAWGQGTQVAVSGGGGSEVQLLESGGGLVQPGGSLRLSCAASGFTFGNYDMAWVRQAPGKRPEWVSSIDTGGDITHYADSVKGRFTISRDNAKNTLYLQMNSLRPEDTAVYWCATDEEYALGPNEFDYYGQGTLVTVSS	5.3 nM	> 95%
sdAb A2 (VHH, also called A1 triple mutant (T28R, P45Y, V93E)) VHH: EVQLLESGGGLVQPGGSLRLSCAASGFRFGNYDMAWVRQAPGKRYEWVSSIDTGGDITHYADSVKGRFTISRDNAKNTLYLQMNSLRPEDTAEYWCATDEEYALGPNEFDYYGQGTLVTVS	250 nM	> 95%
NIgG4B1A1(RS) (Fc fusion, same for the Fc fusions below) chain 1: QVQLQESGGGLVQTGGSLRLSCAVHGRTFSNTGMGWFRQAPGNERQFVAIISPSGTSTYYADSVKGRFTISRDPAKNTVYLQMNSLKMDDTAVYYCAASYGSNWSTLRHQRRNEYDAWGQGTQVAVSRSGPPCPPCPAPEFLGGPSVFLFPPKPKDTLMISRTPEVTCVVVDVSQEDPEVQFNWYVDGVEVHNAKTKPREEQFNSTYRVVSVLTVLHQDWLNGKEYKCKVSNKGLPSSIEKTISKAKGQPREPQVYTLPPCQEEMTKNQVSLWCLVKGFYPSDIAVEWESNGQPENNYKTTPPVLDSDGSFFLYSRLTVDKSRWQEGNVFSCSVMHEALHNHYTQKSLSLSLGK chain 2: EVQLLESGGGLVQPGGSLRLSCAASGFTFGNYDMAWVRQAPGKRPEWVSSIDTGGDITHYADSVKGRFTISRDNAKNTLYLQMNSLRPEDTAVYWCATDEEYALGPNEFDYYGQGTLVTVSSRSGPPCPPCPAPEFLGGPSVFLFPPKPKDTLMISRTPEVTCVVVDVSQEDPEVQFNWYVDGVEVHNAKTKPREEQFNSTYRVVSVLTVLHQDWLNGKEYKCKVSNKGLPSSIEKTISKAKGQPREPQVCTLPPSQEEMTKNQVSLSCAVKGFYPSDIAVEWESNGQPENNYKTTPPVLDSDGSFFLVSRLTVDKSRWQEGNVFSCSVMHEALHNHYTQKSLSLSLGK	1.9 nM	> 95%
NIgG4B1A1(G4S)3 (Fc fusion) chain 1: QVQLQESGGGLVQTGGSLRLSCAVHGRTFSNTGMGWFRQAPGNERQFVAIISPSGTSTYYADSVKGRFTISRDPAKNTVYLQMNSLKMDDTAVYYCAASYGSNWSTLRHQRRNEYDAWGQGTQVAVSGGGGSGGGGSGGGGSGPPCPPCPAPEFLGGPSVFLFPPKPKDTLMISRTPEVTCVVVDVSQEDPEVQFNWYVDGVEVHNAKTKPREEQFNSTYRVVSVLTVLHQDWLNGKEYKCKVSNKGLPSSIEKTISKAKGQPREPQVYTLPPCQEEMTKNQVSLWCLVKGFYPSDIAVEWESNGQPENNYKTTPPVLDSDGSFFLYSRLTVDKSRWQEGNVFSCSVMHEALHNHYTQKSLSLSLGK chain 2: EVQLLESGGGLVQPGGSLRLSCAASGFTFGNYDMAWVRQAPGKRPEWVSSIDTGGDITHYADSVKGRFTISRDNAKNTLYLQMNSLRPEDTAVYWCATDEEYALGPNEFDYYGQGTLVTVSSGGGGSGGGGSGGGGSGPPCPPCPAPEFLGGPSVFLFPPKPKDTLMISRTPEVTCVVVDVSQEDPEVQFNWYVDGVEVHNAKTKPREEQFNSTYRVVSVLTVLHQDWLNGKEYKCKVSNKGLPSSIEKTISKAKGQPREPQVCTLPPSQEEMTKNQVSLSCAVKGFYPSDIAVEWESNGQPENNYKTTPPVLDSDGSFFLVSRLTVDKSRWQEGNVFSCSVMHEALHNHYTQKSLSLSLGK	0.9 nM	> 95%
A1B1(G4S)1 (bispecific antibody) EVQLLESGGGLVQPGGSLRLSCAASGFTFGNYDMAWVRQAPGKRPEWVSSIDTGGDITHYADSVKGRFTISRDNAKNTLYLQMNSLRPEDTAVYWCATDEEYALGPNEFDYYGQGTLVTVSSGGGGSQVQLQESGGGLVQTGGSLRLSCAVHGRTFSNTGMGWFRQAPGNERQFVAIISPSGTSTYYADSVKGRFTISRDPAKNTVYLQMNSLKMDDTAVYYCAASYGSNWSTLRHQRRNEYDAWGQGTQVAVS	1 nM	> 95%
NIgG4B1A1(G4S)1 (Fc fusion) chain 1: QVQLQESGGGLVQTGGSLRLSCAVHGRTFSNTGMGWFRQAPGNERQFVAIISPSGTSTYYADSVKGRFTISRDPAKNTVYLQMNSLKMDDTAVYYCAASYGSNWSTLRHQRRNEYDAWGQGTQVAVSGGGGSGPPCPPCPAPEFLGGPSVFLFPPKPKDTLMISRTPEVTCVVVDVSQEDPEVQFNWYVDGVEVHNAKTKPREEQFNSTYRVVSVLTVLHQDWLNGKEYKCKVSNKGLPSSIEKTISKAKGQPREPQVYTLPPCQEEMTKNQVSLWCLVKGFYPSDIAVEWESNGQPENNYKTTPPVLDSDGSFFLYSRLTVDKSRWQEGNVFSCSVMHEALHNHYTQKSLSLSLGK chain 2: EVQLLESGGGLVQPGGSLRLSCAASGFTFGNYDMAWVRQAPGKRPEWVSSIDTGGDITHYADSVKGRFTISRDNAKNTLYLQMNSLRPEDTAVYWCATDEEYALGPNEFDYYGQGTLVTVSSGGGGSGPPCPPCPAPEFLGGPSVFLFPPKPKDTLMISRTPEVTCVVVDVSQEDPEVQFNWYVDGVEVHNAKTKPREEQFNSTYRVVSVLTVLHQDWLNGKEYKCKVSNKGLPSSIEKTISKAKGQPREPQVCTLPPSQEEMTKNQVSLSCAVKGFYPSDIAVEWESNGQPENNYKTTPPVLDSDGSFFLVSRLTVDKSRWQEGNVFSCSVMHEALHNHYTQKSLSLSLGK	1.1 nM	> 95%
sdAb F6 (VHH) VHH: DVQLQESGGGLVQAGGSLRLSCAASGLTFGSYDMGWYRQAPGKQRELVGRIRNDGITYYADSVKGRFTMSRDNAKNTVYLQMNSLKPEDTAVYYCAADGTGLGHYDYWGQGTQVTVS	–	< 20%
A1B1(G4S)3 (bispecific antibody) EVQLLESGGGLVQPGGSLRLSCAASGFTFGNYDMAWVRQAPGKRPEWVSSIDTGGDITHYADSVKGRFTISRDNAKNTLYLQMNSLRPEDTAVYWCATDEEYALGPNEFDYYGQGTLVTVSSGGGGSGGGGSGGGGSQVQLQESGGGLVQTGGSLRLSCAVHGRTFSNTGMGWFRQAPGNERQFVAIISPSGTSTYYADSVKGRFTISRDPAKNTVYLQMNSLKMDDTAVYYCAASYGSNWSTLRHQRRNEYDAWGQGTQVAVS	0.6 nM	> 95%
NIgG4B1A1(G4S)2 (Fc fusion) chain 1: QVQLQESGGGLVQTGGSLRLSCAVHGRTFSNTGMGWFRQAPGNERQFVAIISPSGTSTYYADSVKGRFTISRDPAKNTVYLQMNSLKMDDTAVYYCAASYGSNWSTLRHQRRNEYDAWGQGTQVAVSGGGGSGGGGSGPPCPPCPAPEFLGGPSVFLFPPKPKDTLMISRTPEVTCVVVDVSQEDPEVQFNWYVDGVEVHNAKTKPREEQFNSTYRVVSVLTVLHQDWLNGKEYKCKVSNKGLPSSIEKTISKAKGQPREPQVYTLPPCQEEMTKNQVSLWCLVKGFYPSDIAVEWESNGQPENNYKTTPPVLDSDGSFFLYSRLTVDKSRWQEGNVFSCSVMHEALHNHYTQKSLSLSLGK chain 2: EVQLLESGGGLVQPGGSLRLSCAASGFTFGNYDMAWVRQAPGKRPEWVSSIDTGGDITHYADSVKGRFTISRDNAKNTLYLQMNSLRPEDTAVYWCATDEEYALGPNEFDYYGQGTLVTVSSGGGGSGGGGSGPPCPPCPAPEFLGGPSVFLFPPKPKDTLMISRTPEVTCVVVDVSQEDPEVQFNWYVDGVEVHNAKTKPREEQFNSTYRVVSVLTVLHQDWLNGKEYKCKVSNKGLPSSIEKTISKAKGQPREPQVCTLPPSQEEMTKNQVSLSCAVKGFYPSDIAVEWESNGQPENNYKTTPPVLDSDGSFFLVSRLTVDKSRWQEGNVFSCSVMHEALHNHYTQKSLSLSLGK	1.4 nM	> 95%
F5A1(G4S)4 (bispecific antibody) DVQLQESGGGLVQPGGSLRLSCAASGSIFSIDIMGWYRQAPGKQRELVATMPEGNYINYADSVKGRLTLSRDKGKNTVYLQLNSLKPEDTAVYYCYGFGVREGRGNVYWGQGTQVTVSGGGGSGGGGSGGGGSGGGGSEVQLLESGGGLVQPGGSLRLSCAASGFTFGNYDMAWVRQAPGKRPEWVSSIDTGGDITHYADSVKGRFTISRDNAKNTLYLQMNSLRPEDTAVYWCATDEEYALGPNEFDYYGQGTLVTVS	1100 nM	75%
B1A1(G4S)2 (bispecific antibody) QVQLQESGGGLVQTGGSLRLSCAVHGRTFSNTGMGWFRQAPGNERQFVAIISPSGTSTYYADSVKGRFTISRDPAKNTVYLQMNSLKMDDTAVYYCAASYGSNWSTLRHQRRNEYDAWGQGTQVAVSGGGGSGGGGSEVQLLESGGGLVQPGGSLRLSCAASGFTFGNYDMAWVRQAPGKRPEWVSSIDTGGDITHYADSVKGRFTISRDNAKNTLYLQMNSLRPEDTAVYWCATDEEYALGPNEFDYYGQGTLVTVSS	10 nM	> 95%
B1A1(G4S)3 (bispecific antibody) QVQLQESGGGLVQTGGSLRLSCAVHGRTFSNTGMGWFRQAPGNERQFVAIISPSGTSTYYADSVKGRFTISRDPAKNTVYLQMNSLKMDDTAVYYCAASYGSNWSTLRHQRRNEYDAWGQGTQVAVSGGGGSGGGGSGGGGSEVQLLESGGGLVQPGGSLRLSCAASGFTFGNYDMAWVRQAPGKRPEWVSSIDTGGDITHYADSVKGRFTISRDNAKNTLYLQMNSLRPEDTAVYWCATDEEYALGPNEFDYYGQGTLVTVSS	5.3 nM	> 95%
